Reference: patent US20230192897A1 (NUMAB THERAPEUTICS, published 2023)
Each block holds one binder with its values, some of them ahead of it.

Key:
[1] = biological target: T1, Fc tagged human PDL1 (human, UniProt Q9NZQ7 19-239); test: SPR
T1 construct: Bought (Sino Biological, cat. 10084-H02H); captured on the SPR chip; also called PDL1-Fc chimeric protein
In short: (§1)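 Kinetics were fitted with a one-to-one Langmuir model to give apparent ka, kd and KD. Binders at 0.12-90 nM (three-fold series) flowed 3 min, with 10 min dissociation and 3 M MgCl₂ regeneration, on a Biacore T200.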

[2] = biological target: cynomolgus CD137-Fc chimeric protein (cynomolgus monkey, UniProt A9YYE7 24-186); test: SPR
In short: as §1

[3] = biological target: T2, mouse CD137-Fc chimeric protein (mouse, UniProt P20334 24-187, limits assumed); test: SPR
T2 sequence (looked up): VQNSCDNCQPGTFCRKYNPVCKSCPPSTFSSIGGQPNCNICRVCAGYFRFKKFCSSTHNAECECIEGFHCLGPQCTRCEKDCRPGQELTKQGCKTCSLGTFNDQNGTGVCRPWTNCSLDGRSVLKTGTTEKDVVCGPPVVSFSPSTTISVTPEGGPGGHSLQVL
In short: as §1

[4] = biological target: T3, Fc tagged human CD137 (human, UniProt Q07011 24-186); test: SPR
T3 construct: also called CD137-Fc chimeric protein
In short: as §1

[5] = biological target: T4, CD137 on Jurkat NFkB reporter cells (human, UniProt Q07011 24-255); test: cell-based or functional assay
[6] = biological target: T4, CD137 on Jurkat NFkB reporter cells; test: cell-based or functional assay; remark: listed apart in the source
[7] = biological target: T4, CD137 on Jurkat NFkB reporter cells; test: cell-based or functional assay; remark: listed apart in the source
[8] = biological target: T4, CD137 on Jurkat NFkB reporter cells; test: cell-based or functional assay; remark: listed apart in the source
[9] = biological target: T5, cynomolgus PDL1-Fc chimeric protein (cynomolgus monkey, UniProt G7PSE7 19-239); test: SPR
T5 construct: PDL1-Fc chimeric protein from different species captured on the chip
In short: as §1

[10] = biological target: T6, biotinylated human PDL1 (human, UniProt Q9NZQ7 19-238, limits assumed, biotinylated); test: competition ELISA B7.1/PDL1
T6 construct: also called biotinylated PDL1
In short: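 Test mixtures containing biotinylated human PDL1 were pre-incubated 1 h at room temperature, then incubated 1.5 h on the plate under agitation. Bound PDL1 detected with 10 ng/ml streptavidin-polyHRP40 and TMB, stopped at 6 min with HCl, read at 450 nm minus 690 nm. IC₅₀ from 4PL fit.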

[11] = biological target: T6, biotinylated human PDL1; test: competition ELISA PD-1/PDL1
[12] = biological target: human PDL1 on cells (human, UniProt Q9NZQ7 19-290); test: cell-based or functional assay
[13] = biological target: T7, human serum albumin (human, UniProt P02768 25-609); test: SPR, SA coupled to chip, pH 5.5
T7 construct: Coupled directly to the CM5 chip; also called HSA; human SA
Experimental: Affinity of molecules to serum albumin (SA) of the different species was determined by SPR measurements using a Biacore T200 device (GE Healthcare). SA was directly coupled to a CM5 sensor chip (GE Healthcare) using amine coupling chemistry. […] The assay was run in a 1× PBS-Tween buffer at pH 5.5.

[14] = biological target: T4, CD137 on Jurkat NFkB reporter cells; test: cell-based or functional assay; remark: listed apart in the source
[15] = biological target: T4, CD137 on Jurkat NFkB reporter cells; test: cell-based or functional assay; remark: listed apart in the source

- koff [1]: 0.00017 s⁻¹
- kon [1]: 2.3e+06 M⁻¹ s⁻¹
- Kd [2]: 1.3 nM
- koff [2]: 0.00033 s⁻¹
- kon [2]: 260000 M⁻¹ s⁻¹
- Kd [3]: 410 nM
- koff [3]: 0.027 s⁻¹
- kon [3]: 65000 M⁻¹ s⁻¹
- Kd [4]: 0.58 nM
- koff [4]: 0.00027 s⁻¹
- kon [4]: 310000 M⁻¹ s⁻¹
- EC50, NFkB reporter, CHO-PDL1 [5]: 5.75 ng/mL
- Top of curve fit, NFkB reporter, CHO-PDL1 [5]: 219
- IC50 (ng/ml), NFkB reporter, CHO-PD-L1 [6]: 5.75 ng/mL
- IC50 (ng/ml), NFkB reporter, HCC827 + IFNg [6]: 11.4 ng/mL
- IC50 (ng/ml), NFkB reporter, HCC827 - IFNg [6]: 16.1 ng/mL
- max. activation (%), NFkB reporter, CHO-PD-L1 [6]: 219%
- max. activation (%), NFkB reporter, HCC827 + IFNg [6]: 154%
- max. activation (%), NFkB reporter, HCC827 - IFNg [6]: 123%
- rel. IC50 (urelumab/test), NFkB reporter, CHO-PD-L1 [6]: 18.1 fold
- rel. IC50 (urelumab/test), NFkB reporter, HCC827 + IFNg [6]: 12.2 fold
- rel. IC50 (urelumab/test), NFkB reporter, HCC827 - IFNg [6]: 6.82 fold
- EC50, NFkB reporter, HCC827 with IFNg [7]: 11.9 ng/mL
- Top of curve fit, NFkB reporter, HCC827 with IFNg [7]: 154
- EC50, NFkB reporter, HCC827 without IFNg [8]: 16.1 ng/mL
- Top of curve fit, NFkB reporter, HCC827 without IFNg [8]: 123
B1: PRO1123 (bispecific antibody)
chain: DIQMTQSPSSLSASVGDRVTITCQASQSINDYLAWYQQKPGKAPKLLIYKASTLASGVPSRFSGSGSGTDFTLTISSLQPEDFATYYCQQGYIITDIDNVFGTGTKVTVLGGGGGSQVQLQESGPGLVKPSETLSLTCKVSGFSFSNSYWICWVRQPPGKGLEWIGCTFVGSSDSTYYANWAKGRVTISVDSSKNQVSLKLSSVTAADTAVYFCARHPSDAVYGYANNLWGQGTLVTVSSGGGGSGGGGSGGGGSGGGGSIQMTQSPSSLSASVGDRVTITCQASQSINNVLAWYQQKPGKPPKLLIYRASTLASGVPSRFSGSGSGTDFTLTISSLQPEDFATYYCQSSYGNYGDFGTGTKVTVLGGGGGSQVQLQESGPGLVKPSETLSLTCKVSGFSFSSGYDMCWIRQPPGKGLEWIGCVVAGSVDITYYASWAKGRVTISVDSSKNQFSLKLSSVTAADTAVYYCARKDAYSDAFNLWGQGTLVTVSS
notes: scDb; also called 38-02-A04 sc05 IF scDb-i/33-03-G02 sc01 scDb-o

- koff [1]: 0.0002 s⁻¹
- kon [1]: 3.1e+06 M⁻¹ s⁻¹
- koff [2]: 0.00033 s⁻¹
- kon [3]: 200000 M⁻¹ s⁻¹
- Kd [4]: ≤ 0.015 nM
- fold improvement of affinity against PRO885 [4]: > 200 fold
- koff [4]: < 1e-05 s⁻¹
- kon [4]: 680000 M⁻¹ s⁻¹
- EC50, NFkB reporter, CHO-PDL1 [5]: 3.68 ng/mL
- Top of curve fit, NFkB reporter, CHO-PDL1 [5]: 229
- IC50 (ng/ml), NFkB reporter, CHO-PD-L1 [6]: 3.68 ng/mL
- IC50 (ng/ml), NFkB reporter, HCC827 + IFNg [6]: 4.83 ng/mL
- IC50 (ng/ml), NFkB reporter, HCC827 - IFNg [6]: 5.62 ng/mL
- max. activation (%), NFkB reporter, CHO-PD-L1 [6]: 229%
- max. activation (%), NFkB reporter, HCC827 + IFNg [6]: 188%
- max. activation (%), NFkB reporter, HCC827 - IFNg [6]: 113%
- rel. IC50 (urelumab/test), NFkB reporter, CHO-PD-L1 [6]: 23.5 fold
- rel. IC50 (urelumab/test), NFkB reporter, HCC827 + IFNg [6]: 22.4 fold
- rel. IC50 (urelumab/test), NFkB reporter, HCC827 - IFNg [6]: 19.9 fold
- EC50, NFkB reporter, HCC827 with IFNg [7]: 4.83 ng/mL
- Top of curve fit, NFkB reporter, HCC827 with IFNg [7]: 188
- EC50, NFkB reporter, HCC827 without IFNg [8]: 5.62 ng/mL
- Top of curve fit, NFkB reporter, HCC827 without IFNg [8]: 113
B2: PRO1124 (bispecific antibody)
chain: DIQMTQSPSSLSASVGDRVTITCQASQSINDYLAWYQQKPGKAPKLLIYKASTLASGVPSRFSGSGSGTDFTLTISSLQPEDFATYYCQQGYIITDIDNVFGTGTKVTVLGGGGGSQVQLQESGPGLVKPSETLSLTCKASGFSFSNSYWICWVRQPPGKGLEWIGCTFVGSSDSTYYANWAKGRVTISKDSSKNQVSLKLSSVTAADTAVYFCARHPSDAVYGYANNLWGQGTLVTVSSGGGGSGGGGSGGGGSGGGGSLQMTQSPSSLSASVGDRVTITCQASQSINNVLAWYQQKPGKPPKLLIYRASTLASGVPSRFSGSGSGTDFTLTISSLQPEDFATYYCQSSYGNYGDFGTGTKVTVLGGGGGSQVQLQESGPGLVKPSETLSLTCKVSGFSFSSGYDMCWIRQPPGKGLEWIGCVVAGSVDITYYASWAKGRVTISVDSSKNQFSLKLSSVTAADTAVYYCARKDAYSDAFNLWGQGTLVTVSS
notes: scDb; also called 38-02-A04 sc06 Full scDb-i/33-03-G02 sc01 scDb-o

- Kd [9]: 0.0085 nM
- koff [9]: 3.4e-05 s⁻¹
- kon [9]: 4e+06 M⁻¹ s⁻¹
- kon [1]: 3.5e+06 M⁻¹ s⁻¹
- Kd [2]: 0.47 nM
- koff [2]: 0.0003 s⁻¹
- kon [2]: 640000 M⁻¹ s⁻¹
- Kd [4]: 0.37 nM
- koff [4]: 0.00022 s⁻¹
- kon [4]: 580000 M⁻¹ s⁻¹
- IC50 [10]: 11.2 ng/mL
- rel. IC50 (IC50 avelumab/IC50 test) [10]: 1.32 fold
- IC50 [11]: 2.27 ng/mL
- rel. IC50 (IC50 avelumab/IC50 test) [11]: 1 fold
- IC50 (ng/ml), NF-AT potency assay, +HSA [12]: 84.8 ng/mL
- rel. IC50 (avelumab/test), +HSA [12]: 0.61 fold
- kon [13]: 327000 M⁻¹ s⁻¹
- IC50 (ng/ml) (EC50 in Table 16C), NFkB reporter, HCC827 + IFNg, 24 h, +HSA [14]: 4.67 ng/mL
- rel. IC50 (PRO1186/test), 24 h [14]: 1 fold
- Area under the curve (calculated using PRO885 normalized data), first line (6 h by the order of the upper part) [15]: 232
- Area under the curve (calculated using PRO885 normalized data), second line (24 h by the order of the upper part) [15]: 261
- EC50 [ng/ml], NF-kB reporter, HCC827 + IFNg, +HSA, 6 h [15]: 6.44 ng/mL
- IC10/EC90 ratio, first line (6 h by the order of the upper part) [15]: 43
- IC10/EC90 ratio, second line (24 h by the order of the upper part) [15]: 360
- Maximum NF-kB activation (rel. to PRO1186) [%], first line (6 h by the order of the upper part) [15]: 114%
- Maximum NF-kB activation (rel. to PRO1186) [%], second line (24 h by the order of the upper part) [15]: 121%
- rel. Area under the curve (AUCsample/AUCPRO1186), first line (6 h by the order of the upper part) [15]: 1.2 fold
- rel. Area under the curve (AUCsample/AUCPRO1186), second line (24 h by the order of the upper part) [15]: 1.29 fold
- rel. EC50 (EC50, PRO1186/EC50, sample), NF-kB reporter, 6 h [15]: 1.93 fold
- rel. EC50 (EC50, PRO1186/EC50, sample), NF-kB reporter, 24 h [15]: 1 fold
- rel. IC10/EC90 (ratio of sample/ratio of PRO1186), first line (6 h by the order of the upper part) [15]: 0.54 fold
- rel. IC10/EC90 (ratio of sample/ratio of PRO1186), second line (24 h by the order of the upper part) [15]: 1.86 fold
B3: PRO1480 (other)
chain: DIQMTQSPASLSASVGDRVTITCQASQSIGTYLAWYQQKPGKPPKLLIYRAFILASGVPSRFSGSGSGTDFTLTISSLQPEDFATYYCQSNFYSDSTTIGPNAFGTGTKVTVLGGGGGSEVQLVESGGGLVQPGGSLRLSCAASGFSFSANYYPCWVRQAPGKGLEWIGCIYGGSSDITYDANWTKGRFTISRDNSKNTVYLQMNSLRAEDTAVYYCARSAWYSGWGGDLWGQGTLVTVSSGGGGSGGGGSGGGGSGGGGSIQMTQSPSSLSASVGDRVTITCQASQSISNRLAWYQQKPGKAPKLLIYSASTLASGVPSRFSGSGSGTDFTLTISSLQPEDFATYYCQSTYYGNDGNAFGTGTKVTVLGGGGGSEVQLVESGGGLVQPGGSLRLSCAASGFSFNSDYWIYWVRQAPGKGLEWIASIYGGSSGNTQYASWAQGRFTISRDNSKNTVYLQMNSLRAEDTAVYFCARGYVDYGGATDLWGQGTLVTVSSGGGGSGGGGSIQMTQSPSSLSASVGDRVTITCQSSESVYSNNQLSWYQQKPGQPPKLLIYDASDLASGVPSRFSGSGSGTDFTLTISSLQPEDFATYYCAGGFSSSSDTAFGGGTKLTVLGGGGGSGGGGSGGGGSGGGGSEVQLVESGGGLVQPGGSLRLSCAASGFSLSSNAMGWVRQAPGKGLEYIGIISVGGFTYYASWAKGRFTISRDNSKNTVYLQMNSLRAEDTATYFCARDRHGGDSSGAFYLWGQGTLVTVSS
notes: trispecific scDb-scFv; also called 38-27-A11 sc02 scDb-i/37-20-B03 sc09.1 scDb-o/19-01-H04 sc03 scFv
